Our source for the Kd values is patent US20250092406.

By Kd is commonly meant the constant that tells how readily two partners part at equilibrium. The low end stands for a tighter complex, the high end for a looser complex.

For data set [1], the target named is SARS-CoV-2 spike glycoprotein subunit 1 (S1) (SARS-CoV-2) (UniProt P0DTC2). Nature of the data set: BLI. For orientation: Biolayer interferometry detects binding as a change in optical thickness at a sensor tip.
Data set [2] addresses TNF-alpha (UniProt P01375). As to the kind of experiment: BLI. The note with it: SEQ 37 part DNA primer, selected region TNA 3'-2', 24 C, 2 mM CaCl2.
Setting [3] is: SEQ 37 part DNA primer, selected region TNA 3'-2', all T = C5-benzyl carboxamide U (UPhe).
[4] abbreviates: all T = C5-benzyl carboxamide U (UPhe).
[5] abbreviates: all T = C5-indole carboxamide U (UTrp).
[6] abbreviates: SEQ 37 part DNA primer, selected region TNA 3'-2', all T = C5-indole carboxamide U (UTrp).

Like-named read-outs stand apart in the source and are kept apart here.

Chain of TNF-alpha (P01375 77-233): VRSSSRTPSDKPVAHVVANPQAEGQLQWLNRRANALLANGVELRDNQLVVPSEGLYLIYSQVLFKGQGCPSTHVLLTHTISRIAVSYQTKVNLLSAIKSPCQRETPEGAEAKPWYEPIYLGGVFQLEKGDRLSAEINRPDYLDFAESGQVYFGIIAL

On to “GTCCCCTTGGGGATACCACCAGAACTTCGTCAGCGTCTTACCGAGTCCAAGGACTGGCTA [S1 Phe entry 12]”, for which, in data set [1] (setting [3]), the Kd stood at 0.0288 µM.

“GTCCCCTTGGGGATACCACCTGACACCTGGCACGAATGCGCAGACGACGTTGTTTTGCGT [TNF Phe entry 4]”: the Kd in data set [2] (setting [4]) stood at 0.019 µM. That is a double-digit nanomolar value.

As to “GTCCCCTTGGGGATACCACCGCGGCCAGATCCCCGATATGTTAACGTCCTTTTATGCGGG [TNA 913]”, the Kd in data set [1] (SEQ 37 part DNA primer, selected region TNA 3'-2', all T = C5-indole carboxamide U (UTrp; from doped Trp-1 library)) was determined as 0.00085 µM.

Consider “GTCCCCTTGGGGATACCACCAGAGCAAGTCATGATCGCGAGTTTAGCTTTTTCATTTCCC [TNF Phe entry 9]”, for which the Kd in data set [2] (setting [4]) is 0.086 µM.

With “GTCCCCTTGGGGATACCACCGCGGGGGGTGTTGTGTAACTGTTTTTTGCCGGAAAGACGC [TNF standard entry 1]”, the equilibrium dissociation constant (Kd) in data set [2] (natural bases, R2 0.88) was found to be 0.042 µM.

Sequence “GTCCCCTTGGGGATACCACCGGTGTAATAAGGAGAGTACGTCGTTTGGTGGGACCGGGTA [S1 Phe entry 15]” yielded a Kd in data set [1] (setting [3]) of 0.039 µM. In other words, the double-digit nanomolar range.

On to “GTCCCCTTGGGGATACCACCCGTGCACGATCTAGCCAGTGCTCGCTTGAAATGGGCGCAG [S1 Standard-2]”, for which, in data set [1] (SEQ 37 part DNA primer, selected region TNA 3'-2', natural bases), the dissociation constant (Kd) amounted to 0.034 µM.

Consider “GTCCCCTTGGGGATACCACCGACGCTATGACTGGTATGGTGTGTGAGCTTCGAGGTCTGA [TNF Standard-2]”, for which the Kd in data set [2] (natural bases, three replicates 109, 76, 62 nM, approximate, poor curve fit) stood at 0.082 µM.

The sequence “GTCCCCTTGGGGATACCACCTGTACGCCATATAGGCAGTCATCGAGCAACGAAGTAATGG [S1 Phe entry 9]” showed a Kd in data set [1] (setting [3]) of 0.0167 µM.

“GTCCCCTTGGGGATACCACCTCACGTCTGTTGTACACTTGTGCAATGCAAGGACGGAAAA [TNF Trp entry 11]” yielded a Kd in data set [2] (setting [5]) of 0.012 µM.

Sequence “GTCCCCTTGGGGATACCACCCGCGGCGTTGCGTAGCGCCAATCCTGCACAGAGGCGGGCG [TNF standard entry 3]” displayed a Kd in data set [2] (natural bases, R2 0.88) of 0.141 µM.

“GTCCCCTTGGGGATACCACCAAACTGTTGGGACTTGTAATGTCGTCATCAGCTAAGAGTC [S1 Trp entry 22]” displayed a Kd in data set [1] (setting [6]) of 0.0211 µM.

In the case of “GTCCCCTTGGGGATACCACCGAATGCGCTTGAGCGCGCCCGATGATATAGCGAACCAAGC [TNF Phe entry 7]”, the Kd in data set [2] (setting [4]) was found to be 0.054 µM.

“GTCCCCTTGGGGATACCACCGAGAGTCATAGTAGTTCACGGGTCTGCAGCTTACGCATGT [S1 Phe entry 6]” had a Kd in data set [1] (setting [3]) of 0.0113 µM.

In data set [1] (setting [3]), “GTCCCCTTGGGGATACCACCAGGCTTATGAAATCTTATGTGAACCGGGCATACGGGCGAT [S1 Phe entry 4]” gave an equilibrium dissociation constant (Kd) of 0.0052 µM.

“GTCCCCTTGGGGATACCACCACGATGGACTTGGGTAGCTAGTCAGGTTAGGCTGTTTGGA [S1 Phe entry 11]” showed a Kd in data set [1] (setting [3]) of 0.0221 µM. This Kd is about 4.3-fold higher than that of the sequence before.

Sequence “GTCCCCTTGGGGATACCACCTGGCGAGGGGTAGTGAGCTGACGGATAGGGCTAGTGGAAC [S1 standard entry 1]” had a Kd in data set [1] (SEQ 37 part DNA primer, selected region alpha-L-threofuranosyl (TNA) 3'-2', natural bases) of 0.0176 µM.

Regarding “GTCCCCTTGGGGATACCACCTTGGCGAGATCCCCTATACGTGAGCTTCCTTTTATCCTTT [S1 Trp-1]”, in data set [1], the Kd was 0.0031 µM.

“GTCCCCTTGGGGATACCACCTACATTACGCGTTAGCGTTAATGGGTATGTCCGGACAGTG [S1 Phe entry 14]” had a Kd in data set [1] (setting [3]) of 0.036 µM.

As to “GTCCCCTTGGGGATACCACCTTTCTATGCATCTCGGGGATGCGGGATATAAAAGAGAGAC [S1 Trp entry 23]”, the dissociation constant (Kd) in data set [1] (setting [6]) came out at 0.0291 µM.

With “GTCCCCTTGGGGATACCACCTTAGTATTATTATGGGTGCGTGAGTTTCCAAGAAGCGCGT [TNA 949]”, the Kd in data set [1] (SEQ 37 part DNA primer, selected region TNA 3'-2', threomer base modification (side chain not stated, probably UTrp)) was determined as 0.0007 µM. This lies in the sub-nanomolar range.

Take “GTCCCCTTGGGGATACCACCCGTACAACTCCGGTTTCGGGCGGCCCGTTCTTCAGTTTGA [S1 Trp entry 18]”: in data set [1] (setting [6]), the Kd amounted to 0.0027 µM. This lies in the single-digit nanomolar range.

In data set [1] (setting [6]), “GTCCCCTTGGGGATACCACCTAAGGAAAGGGGAGCGGGTAGGAGGTTCGTCGGGTGCGAC [S1 Trp entry 19]” registered a Kd of 0.0042 µM.

With “GTCCCCTTGGGGATACCACCCTTAGGTCGGCCTTTGACCATTCGTGCAAAACTTAGCGAA [TNF Phe entry 6]”, the equilibrium dissociation constant (Kd) in data set [2] (setting [4]) was determined as 0.041 µM.

In the case of “GTCCCCTTGGGGATACCACCACGAGTAGGCCGCATTATGATGATTTAAACTGTTTCATGC [TNF Trp-3]”, the Kd in data set [2] (all T = C5-indole carboxamide U (UTrp), three replicates 16, 17, 27 nM) is 0.02 µM.

On to “GTCCCCTTGGGGATACCACCTATTGGAACTCCCGAGCAGGCTGTCCCATGGAAGACTACA [S1 Phe entry 3]”, for which, in data set [1] (setting [3]), the Kd is 0.0026 µM. This lies in the single-digit nanomolar range.

“GTCCCCTTGGGGATACCACCGGCACTATCGATTATCGTGCGCATTGGTTGTGTCCAGGCT [TNF Trp entry 10]” came in with a Kd in data set [2] (setting [5]) of 0.0073 µM.

“GTCCCCTTGGGGATACCACCACTTTTGCTTGAGATTCGGCGCATTTCGTGCAGTGATGTA [TNF Phe entry 5]” yielded an equilibrium dissociation constant (Kd) in data set [2] (setting [4]) of 0.027 µM. That is a double-digit nanomolar value.

In data set [1] (setting [3]), “GTCCCCTTGGGGATACCACCATCGAGTTGTGACGTTAACGATAATAGCCCGCTCCGATTC [S1 Phe entry 13]” came in with a dissociation constant Kd of 0.031 µM.

For “GTCCCCTTGGGGATACCACCATTGTGCGAAGTATACATAGCAGATGCGTGACATAACAAG [S1 Trp entry 20]”, the Kd in data set [1] (setting [6]) amounted to 0.0051 µM.

In the case of “GTCCCCTTGGGGATACCACCTTAATTTTGAGATCTTTGTCGAGTTGCTCGGTGAAAAGTC [TNF Phe entry 8]”, the Kd in data set [2] (setting [4]) worked out at 0.07 µM. In other words, the double-digit nanomolar range.
